Experimental data as given in the Human Domainome abundance scans (Beltran et al. 2025).
± gives the uncertainty stated by the source.

B1: FERM and PDZ domain-containing protein 4, residues 75 to 154; numbered along this chain, Q14CM0 (parent)
chain: APRKVEMRRDPVLGFGFVAGSEKPVVVRSVTPGGPSEGKLIPGDQIVMINDEPVSAAPRERVIDLVRSCKESILLTVIQP

Variants of: B1
Experiment: abundance fitness (aPCA) (normalised: wild type 0, dead -1); higher = more abundant; growth selection in yeast, the domain comes from the species named
Conditions: Homo sapiens

| Variant | abundance fitness |
| --- | --- |
| V54H | -0.942 ± 0.066 |
| V54C | -0.03 ± 0.034 |
| G33L | -0.104 ± 0.024 |
| G33K | -0.064 ± 0.033 |
| G33D | -0.024 ± 0.039 |
| G33I | -0.332 ± 0.055 |
| G33V | -0.328 ± 0.027 |
| G33N | -0.089 ± 0.048 |
| V5S | -0.623 ± 0.031 |
| V5D | -0.976 ± 0.096 |
| P35V | -0.331 ± 0.028 |
| P35A | -0.202 ± 0.028 |
| P35S | -0.394 ± 0.033 |
| P35Y | -0.708 ± 0.091 |
| P35R | -0.486 ± 0.025 |
| P35L | -0.857 ± 0.044 |
| P2V | -0.049 ± 0.027 |
| P2H | 0.023 ± 0.032 |
| I49C | -0.267 ± 0.031 |
| I49V | 0.006 ± 0.023 |
| I49S | -0.929 ± 0.042 |
| P42V | -0.048 ± 0.022 |
| P42M | -0.154 ± 0.031 |
| P42N | -0.069 ± 0.043 |

| Variant | abundance fitness |
| --- | --- |
| P42A | -0.036 ± 0.024 |
| P42T | -0.058 ± 0.028 |
| P42W | -0.477 ± 0.03 |
| K70V | -0.168 ± 0.026 |
| K70Q | -0.078 ± 0.031 |
| K70I | -0.311 ± 0.033 |
| K70S | -0.054 ± 0.024 |
| K70H | -0.096 ± 0.032 |
| K70P | -0.052 ± 0.027 |
| K70L | -0.306 ± 0.024 |
| E71C | -0.149 ± 0.038 |
| E71N | -0.106 ± 0.036 |
| E71M | -0.198 ± 0.034 |
| G16R | -1.04 ± 0.042 |
| G16L | -1.15 ± 0.066 |
| G16N | -0.677 ± 0.099 |
| G16H | -1.01 ± 0.14 |
| G38Y | -0.142 ± 0.038 |
| G38M | -0.185 ± 0.034 |
| G38T | -0.137 ± 0.03 |
| G38L | -0.21 ± 0.024 |
| G38C | -0.186 ± 0.03 |
| I41V | -0.009 ± 0.024 |
| I41D | -0.063 ± 0.036 |

| Variant | abundance fitness |
| --- | --- |
| I41Y | -0.011 ± 0.035 |
| I41K | -0.008 ± 0.028 |
| I41P | -0.925 ± 0.055 |
| I41C | -0.014 ± 0.031 |
| I41M | 0.03 ± 0.027 |
| R61E | -0.071 ± 0.035 |
| R61N | -0.041 ± 0.032 |
| D44M | -0.186 ± 0.029 |
| D44K | -1.01 ± 0.069 |
| D44F | -0.957 ± 0.093 |
| D44G | -0.73 ± 0.026 |
| G43P | -0.958 ± 0.051 |
| G43R | -0.248 ± 0.021 |
| G43D | -0.108 ± 0.035 |
| G43I | -1.03 ± 0.14 |
| G43F | -0.256 ± 0.038 |
| G43M | -0.175 ± 0.028 |
| L40Y | -1.02 ± 0.12 |
| L40I | -0.125 ± 0.045 |
| L40N | -0.94 ± 0.087 |
| K39A | -0.079 ± 0.023 |
| K39G | -0.264 ± 0.021 |
| K39I | 0.005 ± 0.036 |
| K39R | -0.03 ± 0.02 |

| Variant | abundance fitness |
| --- | --- |
| K39D | -0.546 ± 0.041 |
| K39H | -0.028 ± 0.038 |
| F17T | -0.887 ± 0.054 |
| F17W | -0.218 ± 0.026 |
| F17C | -0.637 ± 0.044 |
| F17P | -0.916 ± 0.066 |
| F17K | -0.842 ± 0.051 |
| F17G | -0.897 ± 0.032 |
| V12D | 0.004 ± 0.046 |
| V12P | -0.545 ± 0.046 |
| V12Q | 0 ± 0.037 |
| V12I | -0.055 ± 0.04 |
| R67Y | -0.06 ± 0.036 |
| R67T | -0.018 ± 0.026 |
| R67S | -0.013 ± 0.023 |
| R67N | 0.017 ± 0.033 |
| R67L | -0.105 ± 0.022 |
| N50Q | -0.094 ± 0.028 |
| N50Y | -0.162 ± 0.044 |
| N50F | -0.145 ± 0.037 |
| N50D | -0.035 ± 0.032 |
| L74W | -0.024 ± 0.037 |
| L74N | -0.035 ± 0.079 |
| L74G | 0.009 ± 0.026 |

| Variant | abundance fitness |
| --- | --- |
| L74M | 0.011 ± 0.043 |
| L74Y | 0.131 ± 0.092 |
| L74R | 0.037 ± 0.031 |
| L74S | 0.024 ± 0.038 |
| R3I | -0.099 ± 0.035 |
| R3D | -0.659 ± 0.045 |
| R3N | -0.299 ± 0.04 |
| K23I | -0.085 ± 0.05 |
| K23P | -0.317 ± 0.033 |
| Q79S | 0.022 ± 0.022 |
| Q79A | 0.035 ± 0.022 |
| Q79P | -0.019 ± 0.03 |
| Q79Y | -0.09 ± 0.033 |
| Q79F | -0.262 ± 0.034 |
| D51S | -0.039 ± 0.024 |
| D51Q | -0.027 ± 0.028 |
| S36K | -1.1 ± 0.087 |
| S36R | -1.07 ± 0.042 |
| S36Y | -0.927 ± 0.096 |
| S36V | -0.668 ± 0.033 |
| A1I | 0.122 ± 0.49 |
| A1Q | -0.704 ± 0.2 |
| A1T | -0.278 ± 0.045 |
| S21N | -0.002 ± 0.047 |

| Variant | abundance fitness |
| --- | --- |
| S21M | -0.033 ± 0.034 |
| E6R | -0.029 ± 0.02 |
| E6Q | -0.03 ± 0.029 |
| E6C | -0.065 ± 0.03 |
| E6L | -0.018 ± 0.022 |
| E6M | -0.061 ± 0.028 |
| V47G | -0.426 ± 0.041 |
| V47S | -0.098 ± 0.03 |
| V47M | -0.03 ± 0.049 |
| V47W | -0.128 ± 0.046 |
| D10G | -0.591 ± 0.032 |
| D10K | -0.42 ± 0.063 |
| D10S | -0.099 ± 0.032 |
| D10C | -0.138 ± 0.04 |
| D10F | -0.535 ± 0.062 |
| D10H | -0.12 ± 0.057 |
| D10V | -0.214 ± 0.03 |
| I78S | 0.01 ± 0.022 |
| I78M | 0.022 ± 0.025 |
| I78Q | 0.025 ± 0.024 |
| I78K | 0.036 ± 0.027 |
| I78E | 0.044 ± 0.023 |
| I78T | 0.037 ± 0.024 |
| T31P | -0.59 ± 0.036 |

| Variant | abundance fitness |
| --- | --- |
| T31K | -0.012 ± 0.029 |
| T31S | -0.001 ± 0.023 |
| P58Y | -0.25 ± 0.043 |
| P58V | -0.167 ± 0.023 |
| P58W | -0.474 ± 0.029 |
| S72K | 0.009 ± 0.027 |
| S72F | -0.167 ± 0.028 |
| S72A | -0.072 ± 0.024 |
| I73T | -0.202 ± 0.038 |
| V18W | -0.38 ± 0.03 |
| V18L | -0.142 ± 0.025 |
| V18H | -0.048 ± 0.048 |
| V18K | -0.118 ± 0.032 |
| V18C | -0.041 ± 0.032 |
| V26P | -0.702 ± 0.042 |
| V26L | -0.038 ± 0.024 |
| V26S | -0.116 ± 0.025 |
| V26G | -0.446 ± 0.023 |
| V30C | -0.102 ± 0.031 |
| V30A | -0.499 ± 0.026 |
| V30F | -0.416 ± 0.051 |
| V30S | -0.743 ± 0.035 |
| V30Q | -0.801 ± 0.052 |
